Abundance fitness data for 43 variants are collected here from the Human Domainome abundance scans (Beltran et al. 2025).

± gives the uncertainty stated by the source.

B1: Intersectin-1, residues 909 to 971; numbered along this chain, Q15811 (parent)
chain: QGEKVEGLQAQALYPWRAKKDNHLNFNKNDVITVLEQQDMWWFGEVQGQKGWFPKSYVKLISG

This data set covers variants of B1. The data set is described as follows: abundance fitness (aPCA) (normalised: wild type 0, dead -1); higher = more abundant; growth selection in yeast, the domain comes from the species named. As to conditions: Homo sapiens.
On to QGEKQEGLQAQALYPWRAKKDNHLNFNKNDVITVLEQQDMWWFGEVQGQKGWFPKSYVKLISG, for which the abundance fitness is -0.029 ± 0.14.

As to QGEKVIGLQAQALYPWRAKKDNHLNFNKNDVITVLEQQDMWWFGEVQGQKGWFPKSYVKLISG, the abundance fitness was -0.29 ± 0.23.

On to QGEKVPGLQAQALYPWRAKKDNHLNFNKNDVITVLEQQDMWWFGEVQGQKGWFPKSYVKLISG, for which the abundance fitness stood at 0.074 ± 0.12.

As for QGEKVMGLQAQALYPWRAKKDNHLNFNKNDVITVLEQQDMWWFGEVQGQKGWFPKSYVKLISG, the abundance fitness is -0.069 ± 0.25.

Take QGEKVVGLQAQALYPWRAKKDNHLNFNKNDVITVLEQQDMWWFGEVQGQKGWFPKSYVKLISG: the abundance fitness is -0.122 ± 0.17.

On to QGEKVSGLQAQALYPWRAKKDNHLNFNKNDVITVLEQQDMWWFGEVQGQKGWFPKSYVKLISG, for which the abundance fitness was -0.16 ± 0.12.

For the variant QGEKVFGLQAQALYPWRAKKDNHLNFNKNDVITVLEQQDMWWFGEVQGQKGWFPKSYVKLISG, the abundance fitness is -0.178 ± 0.24.

For the variant QGEKVNGLQAQALYPWRAKKDNHLNFNKNDVITVLEQQDMWWFGEVQGQKGWFPKSYVKLISG, the abundance fitness is -0.079 ± 0.19.

On to QGEKVCGLQAQALYPWRAKKDNHLNFNKNDVITVLEQQDMWWFGEVQGQKGWFPKSYVKLISG, for which the abundance fitness was -0.174 ± 0.2.

Take QGEKVAGLQAQALYPWRAKKDNHLNFNKNDVITVLEQQDMWWFGEVQGQKGWFPKSYVKLISG: the abundance fitness was -0.139 ± 0.11.

As to QGEKVLGLQAQALYPWRAKKDNHLNFNKNDVITVLEQQDMWWFGEVQGQKGWFPKSYVKLISG, the abundance fitness is -0.1 ± 0.12.

As for QGEKVYGLQAQALYPWRAKKDNHLNFNKNDVITVLEQQDMWWFGEVQGQKGWFPKSYVKLISG, the abundance fitness is -0.119 ± 0.24.

For the variant QGEKVRGLQAQALYPWRAKKDNHLNFNKNDVITVLEQQDMWWFGEVQGQKGWFPKSYVKLISG, the abundance fitness is -0.108 ± 0.097.

As for QGEKVKGLQAQALYPWRAKKDNHLNFNKNDVITVLEQQDMWWFGEVQGQKGWFPKSYVKLISG, the abundance fitness was -0.306 ± 0.27.

As to QGEKVTGLQAQALYPWRAKKDNHLNFNKNDVITVLEQQDMWWFGEVQGQKGWFPKSYVKLISG, the abundance fitness is -0.215 ± 0.12.

For QGEKVDGLQAQALYPWRAKKDNHLNFNKNDVITVLEQQDMWWFGEVQGQKGWFPKSYVKLISG, the abundance fitness is -0.221 ± 0.26.

In the case of QGESVEGLQAQALYPWRAKKDNHLNFNKNDVITVLEQQDMWWFGEVQGQKGWFPKSYVKLISG, the abundance fitness is -0.014 ± 0.098.

For QGEHVEGLQAQALYPWRAKKDNHLNFNKNDVITVLEQQDMWWFGEVQGQKGWFPKSYVKLISG, the abundance fitness was -0.168 ± 0.3.

QGEEVEGLQAQALYPWRAKKDNHLNFNKNDVITVLEQQDMWWFGEVQGQKGWFPKSYVKLISG: the abundance fitness was -0.11 ± 0.13.

Consider QGEVVEGLQAQALYPWRAKKDNHLNFNKNDVITVLEQQDMWWFGEVQGQKGWFPKSYVKLISG, for which the abundance fitness is -0.168 ± 0.18.

For QGEAVEGLQAQALYPWRAKKDNHLNFNKNDVITVLEQQDMWWFGEVQGQKGWFPKSYVKLISG, the abundance fitness was -0.159 ± 0.12.

QGENVEGLQAQALYPWRAKKDNHLNFNKNDVITVLEQQDMWWFGEVQGQKGWFPKSYVKLISG: the abundance fitness is -0.026 ± 0.17.

Turning to QGEGVEGLQAQALYPWRAKKDNHLNFNKNDVITVLEQQDMWWFGEVQGQKGWFPKSYVKLISG, the abundance fitness was -0.588 ± 0.15.

Regarding QGEFVEGLQAQALYPWRAKKDNHLNFNKNDVITVLEQQDMWWFGEVQGQKGWFPKSYVKLISG, the abundance fitness is -0.193 ± 0.27.

Take QGERVEGLQAQALYPWRAKKDNHLNFNKNDVITVLEQQDMWWFGEVQGQKGWFPKSYVKLISG: the abundance fitness was -0.126 ± 0.1.

Regarding QGEWVEGLQAQALYPWRAKKDNHLNFNKNDVITVLEQQDMWWFGEVQGQKGWFPKSYVKLISG, the abundance fitness is -0.08 ± 0.17.

Regarding QGECVEGLQAQALYPWRAKKDNHLNFNKNDVITVLEQQDMWWFGEVQGQKGWFPKSYVKLISG, the abundance fitness came to 0.207 ± 0.47.

On to QGEQVEGLQAQALYPWRAKKDNHLNFNKNDVITVLEQQDMWWFGEVQGQKGWFPKSYVKLISG, for which the abundance fitness is -0.39 ± 0.16.

On to QGEPVEGLQAQALYPWRAKKDNHLNFNKNDVITVLEQQDMWWFGEVQGQKGWFPKSYVKLISG, for which the abundance fitness is -0.29 ± 0.27.

For the variant QGELVEGLQAQALYPWRAKKDNHLNFNKNDVITVLEQQDMWWFGEVQGQKGWFPKSYVKLISG, the abundance fitness was -0.248 ± 0.13.

With QGEYVEGLQAQALYPWRAKKDNHLNFNKNDVITVLEQQDMWWFGEVQGQKGWFPKSYVKLISG, the abundance fitness was -0.039 ± 0.23.

As for SGEKVEGLQAQALYPWRAKKDNHLNFNKNDVITVLEQQDMWWFGEVQGQKGWFPKSYVKLISG, the abundance fitness was -0.334 ± 0.36.

On to MGEKVEGLQAQALYPWRAKKDNHLNFNKNDVITVLEQQDMWWFGEVQGQKGWFPKSYVKLISG, for which the abundance fitness is -0.208 ± 0.31.

As for WGEKVEGLQAQALYPWRAKKDNHLNFNKNDVITVLEQQDMWWFGEVQGQKGWFPKSYVKLISG, the abundance fitness was -0.34 ± 0.16.

Regarding TGEKVEGLQAQALYPWRAKKDNHLNFNKNDVITVLEQQDMWWFGEVQGQKGWFPKSYVKLISG, the abundance fitness was -0.111 ± 0.28.

As to RGEKVEGLQAQALYPWRAKKDNHLNFNKNDVITVLEQQDMWWFGEVQGQKGWFPKSYVKLISG, the abundance fitness is -0.299 ± 0.13.

Turning to LGEKVEGLQAQALYPWRAKKDNHLNFNKNDVITVLEQQDMWWFGEVQGQKGWFPKSYVKLISG, the abundance fitness is -0.164 ± 0.17.

For VGEKVEGLQAQALYPWRAKKDNHLNFNKNDVITVLEQQDMWWFGEVQGQKGWFPKSYVKLISG, the abundance fitness turned out to be 0.158 ± 0.4.

On to QGEKVESLQAQALYPWRAKKDNHLNFNKNDVITVLEQQDMWWFGEVQGQKGWFPKSYVKLISG, for which the abundance fitness came to 0.006 ± 0.12.

On to QGEKVEQLQAQALYPWRAKKDNHLNFNKNDVITVLEQQDMWWFGEVQGQKGWFPKSYVKLISG, for which the abundance fitness was determined as 0.164 ± 0.41.

On to QGEKVEDLQAQALYPWRAKKDNHLNFNKNDVITVLEQQDMWWFGEVQGQKGWFPKSYVKLISG, for which the abundance fitness was -0.095 ± 0.12.

For QGEKVEVLQAQALYPWRAKKDNHLNFNKNDVITVLEQQDMWWFGEVQGQKGWFPKSYVKLISG, the abundance fitness is 0.076 ± 0.33.

As for QGEKVERLQAQALYPWRAKKDNHLNFNKNDVITVLEQQDMWWFGEVQGQKGWFPKSYVKLISG, the abundance fitness was -0.227 ± 0.4.
